# Results: US20240254220A1, “COMBINED THERAPY USING ANTI-CD300C ANTIBODY” (CentricsBio, Inc., priority 2021, published 2024)
# T1: CD300c antigen (Homo sapiens, UniProt Q08708)
# T1 construct: purchased Sino Biological 11832-H08H
# T1 sequence (Q08708 21-183): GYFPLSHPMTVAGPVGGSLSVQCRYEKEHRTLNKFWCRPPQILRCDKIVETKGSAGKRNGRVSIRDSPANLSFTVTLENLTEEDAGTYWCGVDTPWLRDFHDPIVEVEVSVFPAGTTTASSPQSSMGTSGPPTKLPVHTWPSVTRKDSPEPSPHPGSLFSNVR
# Biological target: T1, CD300c antigen
# Experiment: Binding ELISA of anti-CD300c monoclonal antibodies to CD300c antigen
# Conditions: CD300c antigen coated at 8 μg/mL, absorbance 450 nm
# Protocol: In order to identify the antigen-binding ability of the anti-CD300c monoclonal antibodies produced in Example 1, binding ELISA was performed. Specifically, a CD300c antigen (11832-H08H, Sino Biological) or a CD300a antigen (12449-H08H, Sino Biological) in a coating buffer (0.1 M sodium carbonate, pH 9.0) was dispensed into an ELISA plate at a concentration of 8 μg/mL per well, followed by incubation at room temperature for 3 hours to allow the antigen to be bound to the plate. The unbound antigens were removed by washing three times using phosphate buffered saline-Tween 20 (PBST), and then 300 μL of PBST supplemented with 5% bovine serum albumin (BSA) was added to each well, followed by incubation at room temperature for 1 hour and then washing using PBST. Then, an anti-CD300c monoclonal antibody was diluted in quadruplicate and added thereto, followed by incubation for 1 hour at room temperature for antigen binding. After 1 hour, washing was performed three times using PBST to remove unbound anti-CD300c monoclonal antibody, and then 4 μg/mL of an antibody for detection (HRP conjugated anti-Fc IgG) was added, followed by incubation again at room temperature for 1 hour. […] Then, 2 N sulfuric acid solution was added to terminate the development reaction, and the absorbance was measured at 450 nm to identify the antibodies specifically binding to the CD300c antigen.
molecule,measurement,value
"CL8: anti-CD300c monoclonal antibody, VH3VL1 phage library, VH SEQ ID 331, VL SEQ ID 332 (antibody, V domains shown, CL8 Heavy Chain Variable Region; CL8 Light Chain Variable Region) VH: EVQLLESGGGLVQPGGSLRLSCAASGFTFSSYAMSWVRQAPGKGLEWVSAISGSGGSTYYADSVKGRFTISRNNSKNTLYLQMNSLRAEDTAVYYCARSGRYADLTSGGQGTLVTVSS VL: QSVLTQPPSASGTPGQRVTISCSGSNSNIGNNYVSWYQQLPDTPPKLLIYDNNKRPSGVPDRFSGSKSGTSASLAISGLRSEDEADYYCSSYTSSSTVMFGGGTKLTVL",EC50,49.7 µg/mL
